Source: patent US20120316071A1 (published 2012)
Blank lines part the entries; values can stand above or below the binder they belong to.

How the values were obtained:
[1] = molecular target: T1, rHuman CD44/Fc Chimera, CF (R&D Systems Cat#3660-CD) (human, UniProt P16070 21-220); experiment: Multispot ECL (MSD) titration; antigen spotted on plate; Fab 98.1 nM; blank spot 210
T1 construct: Bought Fc chimera; Fc part of the bought chimera not given

[2] = molecular target: T2, rHuman P-Cadherin/Fc Chimera, CF (R&D Systems Cat#861-PC) (human, UniProt P22223 108-654); experiment: as above
T2 construct: Bought Fc chimera; Fc part of the bought chimera not given

[3] = molecular target: T3, rHuman IGF-1 sR (IGF-1 sR), CF (R&D Systems Cat#391-GR) (human, UniProt P08069 31-932); experiment: as above
T3 construct: Bought soluble receptor; also called insulin-like growth factor-1 soluble receptor

[4] = molecular target: T4, Recombinant Human DLL4 (R&D Systems Cat#1506-D4/CF) (human, UniProt Q9NR61 27-524); experiment: as above
T4 construct: Bought recombinant protein; also called delta-like protein 4; rHuman DLL4

[5] = molecular target: T5, rHuman Notch-1/Fc Chimera, CF (R&D Systems Cat#3647-TK) (human, UniProt P46531 19-526); experiment: as above
T5 construct: Bought Fc chimera; Fc part of the bought chimera not given

[6] = molecular target: T6, rHuman Erythropoietin R/Fc Chimera, CF (R&D Systems Cat#963-ER) (human, UniProt P19235 25-250); experiment: as above
T6 construct: Bought Fc chimera; also called EPO R/Fc; EPO R; Fc part of the bought chimera not given
T6 sequence (looked up): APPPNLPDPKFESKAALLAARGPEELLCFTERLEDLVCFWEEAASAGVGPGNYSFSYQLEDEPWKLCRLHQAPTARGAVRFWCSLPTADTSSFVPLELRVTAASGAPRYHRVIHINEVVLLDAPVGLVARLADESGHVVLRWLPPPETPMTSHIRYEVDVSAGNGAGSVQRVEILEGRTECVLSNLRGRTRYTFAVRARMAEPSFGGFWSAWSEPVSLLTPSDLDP

[7] = molecular target: T7, rHuman ErbB2/Fc Chimera, CF (R&D Systems Cat#1129-ER) (human, UniProt P04626 23-652); experiment: as above
T7 construct: Bought Fc chimera; also called human epidermal growth factor 2 receptor; Fc part of the bought chimera not given

[8] = molecular target: T8, rHuman HGF R/c-MET/Fc Chimera, CF (R&D Systems Cat#358-MT/CF) (human, UniProt P08581 25-932); experiment: as above
T8 construct: Bought Fc chimera; also called HGF R/Fc; hepatocyte growth factor receptor; Fc part of the bought chimera not given

[9] = molecular target: T1, rHuman CD44/Fc Chimera, CF (R&D Systems …); experiment: Multispot ECL (MSD) titration; antigen spotted on plate; Fab 58.1 nM; blank spot 225
[10] = molecular target: T2, rHuman P-Cadherin/Fc Chimera, CF (R&D …); experiment: as above
[11] = molecular target: T3, rHuman IGF-1 sR (IGF-1 sR), CF (R&D …); experiment: as above
[12] = molecular target: T4, Recombinant Human DLL4 (R&D Systems …); experiment: as above
[13] = molecular target: T6, rHuman Erythropoietin R/Fc Chimera, CF …; experiment: as above
[14] = molecular target: T7, rHuman ErbB2/Fc Chimera, CF (R&D …); experiment: as above
[15] = molecular target: T9, rHuman CD44/Fc Chimera, CF (R&D Systems Cat#3660-CD) (human, UniProt P16070 21-220); experiment: MSD Multispot ECL, antigen spotted on plate, Fab 130 nM; blank spot 1153
T9 construct: Bought reagent; Fc part of the bought chimera not given

[16] = molecular target: T10, rHuman HGF R/c-MET/Fc Chimera, CF (R&D Systems Cat#358-MT/CF) (human, UniProt P08581 25-932); experiment: as above
T10 construct: Bought reagent; also called HGF R/Fc; hepatocyte growth factor receptor; Fc part of the bought chimera not given

[17] = molecular target: T11, Recombinant Human DLL4 (R&D Systems Cat#1506-D4/CF) (human, UniProt Q9NR61 27-529); experiment: as above
T11 construct: Bought recombinant protein; also called rHuman DLL4; delta-like protein 4

[18] = molecular target: T12, rHuman IGF-1 sR, (IGF-1 sR), CF (R&D Systems Cat#391-GR) (human, UniProt P08069 31-932); experiment: as above
T12 construct: Bought soluble receptor; also called insulin-like growth factor-1 soluble receptor

[19] = molecular target: T13, rHuman EGF R/Fc Chimera, CF (R&D Systems Cat#344-ER) (human, UniProt P00533 25-645); experiment: as above
T13 construct: Bought reagent; also called epidermal growth factor receptor; Fc part of the bought chimera not given

- ECL signal [1]: 265
- ECL signal [2]: 347
- ECL signal [3]: 309
- ECL signal [4]: 402
- ECL signal [5]: 313
- ECL signal [6]: 5630
- ECL signal [7]: 247
- ECL signal [8]: 335
B1: Fab VH1-46_IGHD3-10*01_IGHJ4*01 & O1_IGKJ1*01 (Fab, V domains shown)
VH: QVQLVQSGAEVKKPGASVKVSCKASGYTFTSYYMHWVRQAPGQGLEWMGIINPSGGSTSYAQKFQGRVTMTRDTSTSTVYMELSSLRSEDTAVYYCAREYYYGSGSYYNDYFDYWGQGTLVTVSS
VL: DIVMTQTPLSLPVTPGEPASISCRSSQSLLDSDDGNTYLDWYLQKPGQSPQLLIYTLSYRASGVPDRFSGSGSGTDFTLKISRVEAEDVGVYYCMQRIEFPSWTFGQGTKVEIKR
notes: Germline library Fab expressed in E. coli; VH was cloned into Plasmid A (CH1 constant region, His6 and Flag tags); The kappa VL was cloned into Plasmid C (kappa CL)

- ECL signal [9]: 375
- ECL signal [10]: 478
- ECL signal [11]: 343
- ECL signal [12]: 1880
- ECL signal [13]: 829
- ECL signal [14]: 322
B2: Fab VH1-46_IGHD6-13*01_IGHJ4*01 & O1_IGKJ1*01 (Fab, V domains shown)
VH: QVQLVQSGAEVKKPGASVKVSCKASGYTFTSYYMHWVRQAPGQGLEWMGIINPSGGSTSYAQKFQGRVTMTRDTSTSTVYMELSSLRSEDTAVYYCAREGYSSSWYDYFDYWGQGTLVTVSS
VL: DIVMTQTPLSLPVTPGEPASISCRSSQSLLDSDDGNTYLDWYLQKPGQSPQLLIYTLSYRASGVPDRFSGSGSGTDFTLKISRVEAEDVGVYYCMQRIEFPSWTFGQGTKVEIKR
notes: as for B1

- ECL signal [15]: 1750
- ECL signal [16]: 1880
- ECL signal [17]: 7740
- ECL signal [18]: 1970
- ECL signal [19]: 1750
B3: Fab VH1-8_IGHD2-2*01_IGHJ6*01 & L12_IGKJ1*01 (Fab, V domains shown)
VH: QVQLVQSGAEVKKPGASVKVSCKASGYTFTSYDINWVRQATGQGLEWMGWMNPNSGNTGYAQKFQGRVTMTRNTSISTAYMELSSLRSEDTAVYYCARGGYCSSTSCYADYYYYYGMDVWGQGTTVTVSS
VL: not shown
